Assay results: paper PMC5379939

Experiments:
EYFP-ELKS1(771–976) = assay: FRET or BRET
GST-ELKS1(771–976) = assay: pull-down; conditions: scale: GST-ELKS1(771–976) per MBP-bMunc13-2(1–305)

Row | fold of the FRET value of cells coexpressing soluble ECFP and EYFP (EYFP-ELKS1(771–976)) [fold] | normalized FRET value (EYFP-ELKS1(771–976)) | stoichiometry N (GST-ELKS1(771–976)) | Substance
1 | 7 | 0.07 |  | ECFP-bMunc13-2(70–204) (domain or fragment)
2 |  |  | 1.69 | MBP-bMunc13-2(1–305) (domain or fragment)
